The source of these data is publication PMC2714181.

The target of data set [1] is Cys89 (UniProt position 89, DADNNCPILPP). In words: UV-vis. The conditions noted are these: poly buffer: 1 mM EDTA, 10 mM Na-borate, 10 mM Na-phosphate, 10 mM Na-citrate, 10 mM CAPS (starting pH 11.4), titrated by stepwise addition of 100 mM HCl; reduced (DTT-treated, DTT removed), free protein.
Data set [2] addresses Cys10 (UniProt position 10, TIYFICTGNSA). In words: UV-vis. The conditions noted are these: poly buffer: 1 mM EDTA, 10 mM Na-borate, 10 mM Na-phosphate, 10 mM Na-citrate (starting pH 8), titrated by stepwise addition of 100 mM HCl; oxidized with arsenate (Cys82-Cys89 disulfide), Cys10 free thiol.
Data set [3] deals with Cys32 (UniProt position 33, FWAEWCGPCKM). The conditions noted are these: reduced active-site thiol(s) implied, not stated; cited from earlier work.
Data set [4] addresses Cys29 (UniProt position 29, FWATWCGPCKM). The conditions noted are these: reduced active-site thiol(s) implied, not stated; cited from earlier work.
Data set [5] has as its target Cys29 (UniProt position 29, FWATWCGTSKM). The conditions noted are these: reduced active-site thiol(s) implied, not stated; cited from earlier work.

Regarding “Arsenate reductase ArsC (plasmid pI258), C10S/C15A/C82A triple mutant (Sa_ArsC^Trip) (Staphylococcus aureus; C10S;C15A;C82A)”, in data set [1], the pKa is recorded as 9.5.
Consider “Arsenate reductase ArsC (plasmid pI258), C15A, oxidized form (Staphylococcus aureus; C15A)”, for which, in data set [2], the pKa was found to be 6.8.
As for “Thioredoxin 1 (Ec_Trx1) (Escherichia coli)”, in data set [3], the pKa was 7.1.
As to “Thioredoxin (Sa_Trx), wild type (Staphylococcus aureus)”, the pKa in data set [4] was 7.1.
For the substance “Thioredoxin (Sa_Trx, Trx1) P31T/C32S (Staphylococcus aureus; P31T;C32S)”, in data set [5], the pKa is 6.4.
